The source of these data is patent US20100015650.

For this data set, the target named is T1, BRB1 tyrosine kinase substrate peptide.
T1 chain: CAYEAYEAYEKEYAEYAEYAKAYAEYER

B1: PDGFRa (protein)
chain: KQKPRYEIRWRVIESISPDGHEYIYVDPMQLPYDSRWEFPRDGLVLGRVLGSGAFGKVVEGTAYGLSRSQPVMKVAVKMLKPTARSSEKQALMSELKIMTHLGPHLNIVNLLGACTKSGPIYIITEYCFYGDLVNYLHKNRDSFLSHHPEKPKKELDIFGLNPADESTRSYVILSFENNGDYMDMKQADTTQYVPMLERKEVSKYSDIQRSLYDRPASYKKKSMLDSEVKNLLSDDNSEGLTLLDLLSFTYQVARGMEFLASKNCVHRDLAARNVLLAQGKIVKICDFGLARDIMHDSNYVSKGSTFLPVKWMAPESIFDNLYTTLSDVWSYGILLWEIFSLGGTPYPGMMVDSTFYNKIKSGYRMAKPDHATSEVYEIMVKCWNSEPEKRPSFYHLSEIVENLLPGQYKKSYEKIHLDFLKSDHPAVARMRVDSDNAYIGVTYKNEEDKLKDWEGGLDEQRLSADSGYIIPLPDIDPVPEEEDLGKRNRHSSQTSEESAIETGSSSSTFIKREDETIEDIDMMDDIGIDSSDLVEDSFL
Take B1: the Signal to Noise ratio with BRB1 Peptide (TR-FRET kinase assay; kinase 0.5 nM) is 8.

B2: RON (protein)
chain: SYWWRRKQLVLPPNLNDLASLDQTAGATPLPILYSGSDYRSGLALPAIDGLDSTTCVHGASFSDSEDESCVPLLRKESIQLRDLDSALLAEVKDVLIPHERVVTHSDRVIGKGHFGVVYHGEYIDQAQNRIQCAIKSLSRITEMQQVEAFLREGLLMRGLNHPNVLALIGIMLPPEGLPHVLLPYMCHGDLLQFIRSPQRNPTVKDLISFGLQVARGMEYLAEQKFVHRDLAARNCMLDESFTVKVADFGLARDILDREYYSVQQHRHARLPVKWMALESLQTYRFTTKSDVWSFGVLLWELLTRGAPPYRHIDPFDLTHFLAQGRRLPQPEYCPDSLYQVMQQCWEADPAVRPTFRVLVGEVEQIVSALLGDHYVQLPATYMNLGPSTSHEMNVRPEQPQFSPMPGNVRRPRPLSEPPRPT
Turning to B2, the Signal to Noise ratio with BRB1 Peptide (TR-FRET kinase assay; kinase 0.25 nM) was 3.5.

B3: PDGFRβ (protein)
chain: QKKPRYEIRWKVIESVSSDGHEYIYVDPMQLPYDSTWELPRDQLVLGRTLGSGAFGQVVEATAHGLSHSQATMKVAVKMLKSTARSSEKQALMSELKIMSHLGPHLNVVNLLGACTKGGPIYIITEYCRYGDLVDYLHRNKHTFLQHHSDKRRPPSAELYSNALPVGLPLPSHVSLTGESDGGYMDMSKDESVDYVPMLDMKGDVKYADIESSNYMAPYDNYVPSAPERTCRATLINESPVLSYMDLVGFSYQVANGMEFLASKNCVHRDLAARNVLICEGKLVKICDFGLARDIMRDSNYISKGSTFLPLKWMAPESIFNSLYTTLSDVWSFGILLWEIFTLGGTPYPELPMNEQFYNAIKRGYRMAQPAHASDEIYEIMQKCWEEKFEIRPPFSQLVLLLERLLGEGYKKKYQQVDEEFLRSDHPAILRSQARLPGFHGLRSPLDTSSVLYTAVQPNEGDNDYIIPLPDPKPEVADEGPLEGSPSLASSTLNEVNTSSTISCDSPLEPQDEPEPEPQLELQVEPEPELEQLPDSGCPAPRAEAEDSFL
As for B3, the Signal to Noise ratio with BRB1 Peptide (TR-FRET kinase assay; kinase 0.25 nM) amounted to 4.7.

B4: MET (protein)
chain: KKRKQIKDLGSELVRYDARVHTPHLDRLVSARSVSPTTEMVSNESVDYRATFPEDQFPNSSQNGSCRQVQYPLTDMSPILTSGDSDISSPLLQNTVHIDLSALNPELVQAVQHVVIGPSSLIVHFNEVIGRGHFGCVYHGTLLDNDGKKIHCAVKSLNRITDIGEVSQFLTEGIIMKDFSHPNVLSLLGICLRSEGSPLVVLPYMKHGDLRNFIRNETHNPTVKDLIGFGLQVAKGMKYLASKKFVHRDLAARNCMLDEKFTVKVADFGLARDMYDKEYYSVHNKTGAKLPVKWMALESLQTQKFTTKSDVWSFGVLLWELMTRGAPPYPDVNTFDITVYLLQGRRLLQPEYCPDPLYEVMLKCWHPKAEMRPSFSELVSRISAIFSTFIGEHYVHVNATYVNVKCVAPYPSLLSSEDNADDEVDTRPASFWETS
Consider B4, for which the Signal to Noise ratio with BRB1 Peptide (TR-FRET kinase assay; kinase 0.5 nM) was 24.2.

B5: BMX (protein)
chain: MDTKSILEELLLKRSQQKKKMSPNNYKERLFVLTKTNLSYYEYDKMKRGSRKGSIEIKKIRCVEKVNLEEQTPVERQYPFQIVYKDGLLYVYASNEESRSQWLKALQKEIRGNPHLLVKYHSGFFVDGKFLCCQQSCKAAPGCTLWEAYANLHTAVNEEKHRVPTFPDRVLKIPRAVPVLKMDAPSSSTTLAQYDNESKKNYGSQPPSSSTSLAQYDSNSKKIYGSQPNFNMQYIPREDFPDWWQVRKLKSSSSSEDVASSNQKERNVNHTTSKISWEFPESSSSEEEENLDDYDWFAGNISRSQSEQLLRQKGKEGAFMVRNSSQVGMYTVSLFSKAVNDKKGTVKHYHVHTNAENKLYLAENYCFDSIPKLIHYHQHNSAGMITRLRHPVSTKANKVPDSVSLGNGIWELKREEITLLKELGSGQFGVVQLGKWKGQYDVAVKMIKEGSMSEDEFFQEAQTMMKLSHPKLVKFYGVCSKEYPIYIVTEYISNGCLLNYLRSHGKGLEPSQLLEMCYDVCEGMAFLESHQFIHRDLAARNCLVDRDLCVKVSDFGMTRYVLDDQYVSSVGTKFPVKWSAPEVFHYFKYSSKSDVWAFGILMWEVFSLGKQPYDLYDNSQVVLKVSQGHRLYRPHLASDTIYQIMYSCWHELPEKRPTFQQLLSSIEPLREKDKH
B5: the Signal to Noise ratio with BRB1 Peptide (TR-FRET kinase assay; kinase 0.5 nM) was 7.1.

B6: RET (protein)
chain: HCYHKFAHKPPISSAEMTFRRPAQAFPVSYSSSGARRPSLDSMENQVSVDAFKILEDPKWEFPRKNLVLGKTLGEGEFGKVVKATAFHLKGRAGYTTVAVKMLKENASPSELRDLLSEFNVLKQVNHPHVIKLYGACSQDGPLLLIVEYAKYGSLRGFLRESRKVGPGYLGSGGSRNSSSLDHPDERALTMGDLISFAWQISQGMQYLAEMKLVHRDLAARNILVAEGRKMKISDFGLSRDVYEEDSYVKRSQGRIPVKWMAIESLFDHIYTTQSDVWSFGVLLWEIVTLGGNPYPGIPPERLFNLLKTGHRMERPDNCSEEMYRLMLQCWKQEPDKRPVFADISKDLEKMMVKRRDYLDLAASTPSDSLIYDDGLSEEETPLVDCNNAPLPRALPSTWIENKLYGMSDPNWPGESPVPLTRADGTNTGFPRYPNDSVYANWMLSPSAAKLMDTFDS
For B6, the Signal to Noise ratio with BRB1 Peptide (TR-FRET kinase assay; kinase 0.5 nM) turned out to be 20.3.

B7: ROR1 (protein)
chain: CRNNQKSSSAPVQRQPKHVRGQNVEMSMLNAYKPKSKAKELPLSAVRFMEELGECAFGKIYKGHLYLPGMDHAQLVAIKTLKDYNNPQQWTEFQQEASLMAELHHPNIVCLLGAVTQEQPVCMLFEYINQGDLHEFLIMRSPHSDVGCSSDEDGTVKSSLDHGDFLHIAIQIAAGMEYLSSHFFVHKDLAARNILIGEQLHVKISDLGLSREIYSADYYRVQSKSLLPIRWMPPEAIMYGKFSSDSDIWSFGVVLWEIFSFGLQPYYGFSNQEVIEMVRKRQLLPCSEDCPPRMYSLMTECWNEIPSRRPRFKDIHVRLRSWEGLSSHTSSTTPSGGNATTQTTSLSASPVSNLSNPRYPNYMFPSQGITPQGQIAGFIGPPIPQNQRFIPINGYPIPPGYAAFPAAHYQPTGPPRVIQHCPPPKSRSPSSASGSTSTGHVTSLPSSGSNQEANIPLLPHMSIPNHPGGMGITVFGNKSQKPYKIDSKQASLLGDANIHGHTESMISAEL
Consider B7, for which the Signal to Noise Ratio with BRB1 Peptide (TR-FRET kinase assay; kinase 20 nM) was 1.1.

B8: MUSK (protein)
chain: CCRRRKQWKNKKRESAAVTLTTLPSELLLDRLHPNPMYQRMPLLLNPKLLSLEYPRNNIEYVRDIGEGAFGRVFQARAPGLLPYEPFTMVAVKMLKEEASADMQADFQREAALMAEFDNPNIVKLLGVCAVGKPMCLLFEYMAYGDLNEFLRSMSPHTVCSLSHSDLSMRAQVSSPGPPPLSCAEQLCIARQVAAGMAYLSERKFVHRDLATRNCLVGENMVVKIADFGLSRNIYSADYYKANENDAIPIRWMPPESIFYNRYTTESDVWAYGVVLWEIFSYGLQPYYGMAHEEVIYYVRDGNILSCPENCPVELYNLMRLCWSKLPADRPSFTSIHRILERMCERAEGTVSV
For the protein B8, the Signal to Noise Ratio with BRB1 Peptide (TR-FRET kinase assay; kinase 1 nM) was determined as 3.1.
